Reference: publication PMC7573392, “Monitoring Allosteric Interactions with CXCR4 Using NanoBiT Conjugated Nanobodies” (Cell Chemical Biology, 2020)
Marks after values point to notes of the source that are not given here.

T1: LgBiT-tagged human CXCR4 receptor ( | human, UniProt P61073 2-352, CXCR4 portion only (initiator Met removed (so in the source)); this part carries VUN400, CXCL12, AMD3100 and IT1t binding. Left out: the 5-HT3A signal sequence (presumed cleaved), the N-terminal LgBiT report)
T1 chain: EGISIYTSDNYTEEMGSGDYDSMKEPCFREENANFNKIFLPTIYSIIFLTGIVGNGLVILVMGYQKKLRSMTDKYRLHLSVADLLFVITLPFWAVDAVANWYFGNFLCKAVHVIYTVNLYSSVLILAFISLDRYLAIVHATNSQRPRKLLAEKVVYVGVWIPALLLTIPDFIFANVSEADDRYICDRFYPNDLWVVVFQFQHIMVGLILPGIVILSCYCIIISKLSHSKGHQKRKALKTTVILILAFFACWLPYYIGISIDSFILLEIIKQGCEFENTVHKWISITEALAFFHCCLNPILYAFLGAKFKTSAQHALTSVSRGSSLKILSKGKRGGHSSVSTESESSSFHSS


Experiments:
LgBiT-CXCR4 [1] = biological target: T2, LgBiT-CXCR4 (Homo sapiens, UniProt P61073); experiment: NanoBiT saturation binding (complemented luminescence) in HEK293 cells stably expressing LgBiT-CXCR4; conditions: for prevention of VUN400-HiBiT binding to LgBiT-CXCR4: fixed concentration: 100 nM CXCL12, 10 μM AMD3100 or 10 μM IT1t (Figure 3E)
T2 construct: GSSG linker and TEV recognition site (EDLYFQS), between LgBiT and CXCR4 (N); expressed in transfected cells; whole cells in A1-A4, isolated membranes in A9/A10
Experimental: Saturation binding with VUN400-HiBiT was performed on HEK 293 cells stably expressing the LgBiT-CXCR4 receptor. Cells were plated at 30,000 cells/well in white 96-well plates previously coated with poly-D-lysine (10 μg/ml in PBS) in 100 μl complete media (DMEM with 10% FCS). After 24 hours, the media was removed and replaced with 100 μl HBSS containing VUN400-HiBiT within the range of 4-500 nM. Where used, CXCL12, AMD3100 or IT1t were also added at this point. The plate was incubated for two hours at 37°C. Furimazine (1:400 final concentration) was added to each well and the plate was incubated for a further 15 minutes at 37°C. Luminescence was measured using the PHERAstar FS plate reader.
Saturation binding curves of VUN400-HiBiT were fitted using the following equation: Specificbinding=Bmax×[B]/[B]+KD where Bmax is the maximal specific binding, [B] is the concentration of VUN400-HiBiT, and KD is the equilibrium dissociation constant (nM).

LgBiT-CXCR4 [2] = biological target: T2, LgBiT-CXCR4; experiment: NanoBiT nanobody displacement binding assay, whole HEK293 cells expressing LgBiT-CXCR4
Experimental: (§1) Full nanobody displacement assays were performed in HEK293 cells stably expressing either the LgBiT-CXCR4 or SNAP-CXCR4 constructs. Cells (30,000 per well) were plated in white 96-well poly-D-lysine coated plates as described above. After 24 hours, media was removed and replaced with 100 μl HBSS. Increasing concentrations of displacing ligands were added to the cells. […] The cells were incubated at 37°C for 2 and a half hours in total. […] Furimazine (1:400 final concentration) was added to each well and the plate was incubated for a further 15 minutes at 37°C. Luminescence was measured using the PHERAstar FS plate reader.

[3] = system: T3, endogenous, untagged CXCR4; experiment: Nanobody displacement assay in Jurkat T cells (endogenous CXCR4); format: binding, human; conditions: 100 nM VUN400-HiBiT with competing ligand 2 h, washed, exogenous LgBiT added, p < 0.05
T3 construct: these cells express high levels of CXCR4 endogenously; host or cells: Jurkat T cells (clone E6-1)
Experimental: Nanobody displacement assays in T-cells were performed by seeding 100,000 Jurkat cells per well into V-bottom 96-well plates in 100μl warm HBSS. Cells were treated with 100 nM VUN400-HiBiT and competing ligands simultaneously and incubated for 2 hours at 37°C. The cells were pelleted by centrifugation at 300g for 5 minutes and the supernatant removed and replaced with 200 μl fresh HBSS. Cells were resuspended via shaking at 1000 r.p.m on an orbital plate shaker for 2 minutes. This wash step was repeated two more times to remove unbound VUN400-HiBiT. The cells were treated with 20 nM exogenous LgBiT and furimazine (1:400 final concentration) and transferred to white 96-well plates and luminescence read using a PHERAstar FS plate reader.

SNAP-CXCR4 [4] = biological target: T4, SNAP-CXCR4 (Homo sapiens, UniProt P61073); conditions: 10 μM AMD3100 (Figure S1)
Excerpt: Data are mean ± SEM from triplicate determinations in a single experiment. This single
Data are mean ± SEM from triplicate determinations in a single experiment.

SNAP-CXCR4 [5] = biological target: T4, SNAP-CXCR4; experiment: NanoBiT nanobody displacement binding assay, whole HEK293 cells expressing SNAP-CXCR4 (exogenous LgBiT added after washing); design: expressed in transfected cells; host or cells: HEK293G cells stably expressing SNAP-CXCR4 (gift of Dr. J. Goulding, University of Nottingham)
Experimental: as §1

LgBiT-CXCR4 [6] = biological target: T2, LgBiT-CXCR4; experiment: NanoBRET saturation binding at complemented LgBiT-CXCR4 in HEK293 cells; conditions: non-specific binding defined with 10 μM AMD3100, 2 h 37°C
Experimental: Saturation NanoBRET binding assays were performed on HEK 293 cells stably expressing the LgBiT-CXCR4 receptor. Cells were plated at 30,000 cells/well in white 96-well plates (Greiner) previously coated with 50 μl poly-D-lysine (mol wt: 70-150 kDa; 10 μg/ml in PBS) in 100 μl complete media (DMEM with 10% FCS). After 24 hours, the media was removed from each well and replaced with 100 μl HEPES-buffered saline solution (HBSS; 145 mM NaCl, 5 mM KCl, 1.3 mM CaCl2, 1 mM MgSO4, 10 mM HEPES, 2 mM sodium pyruvate, 1.5 mM NaHCO3, 10 mM D-glucose, pH 7.45) containing 10 nM purified HiBiT-HaloTag (Promega) and incubated at 37°C for 30 minutes. This was sufficient time for HiBiT-LgBiT complementation to occur, forming the fully complemented NanoLuc enzyme. The HBSS was then aspirated and the cells washed three times with 100 μl HBSS. […] Cells were incubated for 2 hours at 37°C in the dark. The NanoLuc substrate furimazine (Promega) was added to each well (1:400 final concentration) and allowed to equilibrate for 5 minutes at 37°C prior to reading. Luminescence signals were measured at two wavelengths using a PHERAstar FS plate reader (BMG Labtech, UK) at room temperature. Filtered light was simultaneously measured using 460 nm (80-nm bandpass) and >610 nm longpass filters. The resulting BRET ratio was calculated by dividing the >610 nm emission by the 460 nm emission.

LgBiT-CXCR4 [7] = biological target: T2, LgBiT-CXCR4; experiment: CXCL12-AF647 dissociation kinetics (NanoBRET) at complemented LgBiT-CXCR4; format: binding
Experimental: Nanobody and CXCL12-AF647 dissociation kinetic measurements were performed in membranes isolated from HEK293 LgBiT-CXCR4 cells. Briefly, 10 μg LgBiT-CXCR4 membranes were plated in white 96-well plates containing furimazine (1:400 final concentration) and incubated at 37°C for 10 minutes. […] Increasing concentrations of VUN400-HiBiT or CXCL12-AF647 were added to the wells and luminescence (VUN400-HiBiT) or the BRET ratio (CXCL12-AF647) were measured. […] The BRET ratio was calculated as described above. Both the BRET ratio and luminescence were measured using the PHERAstar FS plate reader.
For nanobody dissociation experiments were fitted to the following mono-exponential decay equation: Y=(Y0−NS)^−k.t+NS where Y0 is the nanobody binding at the time of ligand addition (t0), NS is the nanobody bound at infinite time, and k is the rate constant of nanobody dissociation.

SNAP-CXCR4 [8] = biological target: T4, SNAP-CXCR4; experiment: TR-FRET saturation ligand binding at SNAP-CXCR4; design: expressed in transfected cells; host or cells: HEK293G cells stably expressing SNAP-CXCR4 (gift of Dr. J. Goulding, University of Nottingham)
Excerpt: Saturation binding of VUN400-HiBiT a t th e
experiment is representative of five separate experiments.
Supplementary Figure 2 (related to Figure 5).
This single experiment is representative of five separate experiments.

LgBiT-CXCR4 [9] = biological target: T2, LgBiT-CXCR4; experiment: NanoBiT association kinetic measurements (complemented luminescence) in HEK293 cells stably expressing LgBiT-CXCR4; format: binding; conditions: KD = koff/kon at LgBiT-CXCR4
Experimental: Cells (30,000 per well) were plated in white 96-well poly-D-lysine coated plates (10 μg/ml in PBS) as described above. After 24 hours, media was removed and replaced with 50 μl HBSS containing furimazine (1:400 final concentration) and incubated at 37°C for 10 minutes and basal luminescence was measured. […] The resulting luminescence was measured over 60 minutes at 37°C. Luminescence was measured using the PHERAstar FS plate reader.
Nanobody binding association kinetic data were fitted to the following mono-exponential association function: Y=Ymax(1−e^−kobs.t) where Ymax is the specific binding at infinite time, t is the time of incubation, and kobs is the rate constant for the observed rate of association.
kon and koff values were determined by simultaneously fitting nanobody binding association kinetic curves obtained at different nanobody concentrations (L) to the equation above with the relationship between kobs and the two kinetic binding rate constants kon and koff given by: kon=kobs−koff/L
Kinetically determined nanobody KD values were determined with the following equation: KD=koff/kon

[10] = biological target: T1, LgBiT-tagged human CXCR4 receptor; experiment: split reporter (BiFC, NanoBiT); association kinetics; increasing concentrations of HiBiT added to HEK293 cells stably expressing LgBiT-CXCR4 in HBSS with furimazine; luminescence over 60 minutes at 37°C; global fit of kon and koff, KD = koff/kon; conditions: one partner purified
[11] = 20 nM VUN400-HiBiT, (a) pre-incubation with VUN400-HiBiT
[12] = 20 nM VUN400-HiBiT, (b) simultaneous addition
[13] = 20 nM VUN400-HiBiT, (c) pre-incubation with ligands
[14] = 20 nM VUN400-HiBiT, (b) simultaneous addition, 2 h 37°C
[15] = (c) pre-incubation with ligands 2 h 37°C, then 20 nM VUN400-HiBiT 30 min
[16] = inhibition of 20 nM VUN400-HiBiT binding, (a) pre-incubation with VUN400-HiBiT 30 min, then ligand 2 h 37°C

T4 sequence (P61073 whole entry): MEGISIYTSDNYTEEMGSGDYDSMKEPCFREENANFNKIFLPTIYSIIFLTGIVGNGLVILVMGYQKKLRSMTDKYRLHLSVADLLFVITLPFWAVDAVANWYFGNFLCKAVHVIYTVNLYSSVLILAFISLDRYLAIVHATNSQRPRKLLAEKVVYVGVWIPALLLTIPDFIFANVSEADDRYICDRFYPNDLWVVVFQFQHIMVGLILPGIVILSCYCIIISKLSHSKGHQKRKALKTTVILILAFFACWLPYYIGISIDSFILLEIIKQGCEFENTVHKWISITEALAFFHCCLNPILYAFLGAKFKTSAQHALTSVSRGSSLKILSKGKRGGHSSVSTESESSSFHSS

| Molecule | prevention of VUN400-HiBiT binding to LgBiT-CXCR4 (LgBiT-CXCR4 [1]) | Maximum Inhibition (% 10 μM AMD3100) (LgBiT-CXCR4 [2]; [11]) | Maximum Inhibition (% 10 μM AMD3100) (LgBiT-CXCR4 [2]; [12]) | Maximum Inhibition (% 10 μM AMD3100) (LgBiT-CXCR4 [2]; [13]) | displacement of VUN400-HiBiT from endogenous CXCR4 [3] | Maximum Inhibition (% 10 μM AMD3100) (SNAP-CXCR4 [5]; [11]) | Maximum Inhibition (% 10 μM AMD3100) (SNAP-CXCR4 [5]; [12]) | Maximum Inhibition (% 10 μM AMD3100) (SNAP-CXCR4 [5]; [13]) | further results |
| --- | --- | --- | --- | --- | --- | --- | --- | --- | --- |
| c1cc(CN2CCCNCCNCCCNCC2)ccc1CN1CCCNCCNCCCNCC1 [AMD3100] | prevented | 100 % 10 μM AMD3100 | 100 % 10 μM AMD3100 | 100 % 10 μM AMD3100 | displaced | 100 % 10 μM AMD3100 | 100 % 10 μM AMD3100 | 100 % 10 μM AMD3100 | effect on VUN400-HiBiT bioluminescence signal at SNAP-CXCR4 (SNAP-CXCR4 [4]): able to reduce the bioluminescence signals |
| CC1(C)CN2C(CSC(=NC3CCCCC3)NC3CCCCC3)=CSC2=N1.Cl.Cl [IT1t, N,N’-Dicyclohexylcarbamimidothioic acid (5,6-dihydro-6,6-dimethylimidazo[2,1-b]thiazol-3-yl)methyl ester dihydrochloride] | prevented | 104.4 ± 4.5 % 10 μM AMD3100 | 96.5 ± 0.4 % 10 μM AMD3100 | 79.9 ± 3.1 ^c % 10 μM AMD3100 | displaced | 107.1 ± 4.8 % 10 μM AMD3100 | 106.8 ± 11.5 % 10 μM AMD3100 | 102.3 ± 3.6 % 10 μM AMD3100 |  |
| CXCL12-AF647: fluorescently labeled CXCL12, fluorescent orthosteric agonist (Almac) |  |  |  |  |  |  |  |  | pKD (LgBiT-CXCR4 [6]): 7.80 ± 0.08; koff (LgBiT-CXCR4 [7]; 10 nM CXCL12-AF647, after addition of 1 μM CXCL12): 0.32 ± 0.03 min⁻¹; koff (LgBiT-CXCR4 [7]; 10 nM CXCL12-AF647, after addition of 10 μM AMD3100): 0.42 ± 0.04 min⁻¹; pKD (SNAP-CXCR4 [8]): 7.99 ± 0.10 |
| CXCL12: chemokine ligand, endogenous orthosteric agonist of CXCR4 (PeproTech) | prevented | 98.2 ± 0.2 % 10 μM AMD3100 | 98.8 ± 0.3 % 10 μM AMD3100 | 111.5 ± 3.1 ^c % 10 μM AMD3100 | displaced | 93.3 ± 8.7 % 10 μM AMD3100 | 92.8 ± 6.7 % 10 μM AMD3100 | 67.7 ± 11.6 ^c % 10 μM AMD3100 | pIC50 (Mean ± SEM) (LgBiT-CXCR4 [2]; [14]): 8.74 ± 0.13; pIC50 (Mean ± SEM) (LgBiT-CXCR4 [2]; [15]): 9.03 ± 0.02; pIC50 (Mean ± SEM) (LgBiT-CXCR4 [2]; [16]): 8.82 ± 0.12; pIC50 (Mean ± SEM) (SNAP-CXCR4 [5]; [14]): 8.05 ± 0.21 ^a; pIC50 (Mean ± SEM) (SNAP-CXCR4 [5]; [15]): 8.05 ± 0.41; pIC50 (Mean ± SEM) (SNAP-CXCR4 [5]; [16]): 8.14 ± 0.28 ^a |
| HiBiT: purified HiBiT-HaloTag fusion protein, circa 34 kDa (Promega) |  |  |  |  |  |  |  |  | pKD (determined from kinetic rate constants) (LgBiT-CXCR4 [9]): 6.4; saturation binding (in words) (LgBiT-CXCR4 [1]; increasing concentrations added to HEK LgBiT-CXCR4 cells): linear, indicative of low affinity |
| VSGWRLFKKIS (Fusion protein of circa 34 kDa; also called HiBiT-HaloTag control protein; source: bought: Promega (Cat# N3010)) [purified HiBiT-HaloTag fusion protein] |  |  |  |  |  |  |  |  | koff [10]: 0.00367 s⁻¹; kon [10]: 10000 M⁻¹ s⁻¹; pKD [10]: 6.43 ± 0.13 |
